11 substances from paper PMC11180167 can be followed below.

Test [1] has as its target skeletal muscle ryanodine receptor RyR1 in porcine skeletal SR membranes (pig (endogenous in porcine skeletal SR membranes)) (UniProt P16960). In words: co-sedimentation; skeletal SR membranes (0.02 mg/ml) incubated 90 min at 37 °C with 1-60 nM AF488-FKBP12.6 in 150 mM KCl, 20 mM K-PIPES pH 7.0, 5 mM GSH, 0.1 mg/ml BSA, 1 mM EGTA, 65 µM CaCl2 (30 nM free Ca2+); non-specific binding with 5 µM unlabeled FKBP12.6; bound and free separated at 100,000 x g for 25 min; fluorescence of the pellet; Kd from Hill fit, n = 3.

For test [2], the target named is cardiac muscle ryanodine receptor RyR2 in porcine cardiac SR membranes (pig (endogenous in porcine cardiac SR membranes)). In words: co-sedimentation; cardiac SR membranes (0.12 mg/mL) incubated 90 min at 37 °C with 1-60 nM AF488-FKBP12.6 in 150 mM KCl, 20 mM K-PIPES pH 7.0, 5 mM GSH, 0.1 mg/ml BSA, 1 mM EGTA, 65 µM CaCl2 (30 nM free Ca2+); non-specific binding with 20 µM tacrolimus; bound and free separated at 100,000 x g for 25 min; fluorescence of the pellet; Kd from Hill fit, n = 5.

For test [3], the target named is ryanodine receptor 1 (RyR1) in porcine skeletal SR membranes (pig (endogenous in porcine skeletal muscle SR)) (UniProt P16960). Description: co-sedimentation; 1-60 nM AF488-FKBP12.6 with SR membranes (0.02 mg/ml skeletal, 0.12 mg/mL cardiac), 90 min at 37 °C, 150 mM KCl, 20 mM K-PIPES pH 7.0, 5 mM GSH, 0.1 mg/ml BSA, 30 nM free Ca2+; bound and free separated at 100,000 x g; non-specific binding with 5 µM unlabeled FKBP12.6 (skeletal) or 20 µM tacrolimus (cardiac); bound AF488 read by fluorescence.

The target is the same in test [4].

On to “AF488-labeled T14C FKBP12.6 (null-cysteine background) (natural protein)”, for which the Kd turned out to be 3.7 nM in test [1] and 3.2 nM in test [2].

Consider “AF488-labeled K44C FKBP12.6 (null-cysteine background) (natural protein)”, for which the figures for the Kd in test [1] and in test [2] were 4.7 nM and 3.7 nM, respectively.

As for “AF488-labeled Q65C FKBP12.6 (null-cysteine background) (natural protein)”, the Kd in test [1] is 3.9 nM; in test [2], 2.3 nM.

“AF488-labeled T6C FKBP12.6 (null-cysteine background) (natural protein)” came in with a Kd in test [2] of 2.7 nM.

Take “AF488-labeled R49C FKBP12.6 (null-cysteine background) (natural protein)”: the results for the Kd in test [1] and in test [2] were 6.4 nM and 3.6 nM, respectively.

The substance “AF488-labeled G1C FKBP12.6 (null-cysteine background) (natural protein)” gave a Kd in test [2] of 5 nM.

AF488-T6C-FKBP12.6 (natural protein): the Kd in test [3] came out at 7.3 nM.

In turn, “unlabeled WT-CaM (from UniProt P0DP23 1-149) (natural protein)” returned a [^3H]ryanodine binding as an index of channel activity, 800 nM CaM, 30 nM Ca2+: increase in test [4] of 20 fold.

On to AF488-G1C-FKBP12.6 (natural protein), for which, in test [3], the Kd is 12.6 nM.

Consider “AF488-labeled E32C FKBP12.6 (null-cysteine background) (natural protein)”, for which the Kd in test [1] was found to be 4.9 nM; in test [2], 1.6 nM.

On to “AF488-labeled T85C FKBP12.6 (null-cysteine background) (natural protein)”, for which the Kd in test [1] is 5.8 nM; in test [2] it was 1.9 nM.
